Measurements from publication PMC10802681, “Structures of the essential efflux pump EfpA from Mycobacterium tuberculosis reveal the mechanisms of substrate transport and small-molecule inhibition” (Research Square, 2024).

Experiments:
cryo-EM structure = target: the molecule itself; assay: cryo-EM structure
[1] = target: the molecule itself; assay: SEC + other: negative-stain EM

Row | Protein | stoichiometry N (cryo-EM structure) | binding result [1]
1 | MtEfpA (EfpA from Mycobacterium tuberculosis), wild type, with C-terminal GFP and Strep-Tag II (natural protein, Forms an antiparallel dimer in LMNG-CHS; predominantly monomeric in DDM-CHS; No tag cleavage is described; also called MtEfpA-cGFP; MtEfpA-GFP; not shown: GFP, C-terminal, kept) MTALNDTERAVRNWTAGRPHRPAPMRPPRSEETASERPSRYYPTWLPSRSFIAAVIAIGGMQLLATMDSTVAIVALPKIQNELSLSDAGRSWVITAYVLTFGGLMLLGGRLGDTIGRKRTFIVGVALFTISSVLCAVAWDEATLVIARLSQGVGSAIASPTGLALVATTFPKGPARNAATAVFAAMTAIGSVMGLVVGGALTEVSWRWAFLVNVPIGLVMIYLARTALRETNKERMKLDATGAILATLACTAAVFAFSIGPEKGWMSGITIGSGLVALAAAVAFVIVERTAENPVVPFHLFRDRNRLVTFSAILLAGGVMFSLTVCIGLYVQDILGYSALRAGVGFIPFVIAMGIGLGVSSQLVSRFSPRVLTIGGGYLLFGAMLYGSFFMHRGVPYFPNLVMPIVVGGIGIGMAVVPLTLSAIAGVGFDQIGPVSAIALMLQSLGGPLVLAVIQAVITSRTLYLGGTTGPVKFMNDVQLAALDHAYTYGLLWVAGAAIIVGGMALFIGYTPQQVAHAQEVKEAIDAGEL | 2 | 
2 | MtEfpA G377D mutant (natural protein) MTALNDTERAVRNWTAGRPHRPAPMRPPRSEETASERPSRYYPTWLPSRSFIAAVIAIGGMQLLATMDSTVAIVALPKIQNELSLSDAGRSWVITAYVLTFGGLMLLGGRLGDTIGRKRTFIVGVALFTISSVLCAVAWDEATLVIARLSQGVGSAIASPTGLALVATTFPKGPARNAATAVFAAMTAIGSVMGLVVGGALTEVSWRWAFLVNVPIGLVMIYLARTALRETNKERMKLDATGAILATLACTAAVFAFSIGPEKGWMSGITIGSGLVALAAAVAFVIVERTAENPVVPFHLFRDRNRLVTFSAILLAGGVMFSLTVCIGLYVQDILGYSALRAGVGFIPFVIAMGIGLGVSSQLVSRFSPRVLTIGGDYLLFGAMLYGSFFMHRGVPYFPNLVMPIVVGGIGIGMAVVPLTLSAIAGVGFDQIGPVSAIALMLQSLGGPLVLAVIQAVITSRTLYLGGTTGPVKFMNDVQLAALDHAYTYGLLWVAGAAIIVGGMALFIGYTPQQVAHAQEVKEAIDAGEL |  | binds
3 | MtEfpA G502D mutant (natural protein) MTALNDTERAVRNWTAGRPHRPAPMRPPRSEETASERPSRYYPTWLPSRSFIAAVIAIGGMQLLATMDSTVAIVALPKIQNELSLSDAGRSWVITAYVLTFGGLMLLGGRLGDTIGRKRTFIVGVALFTISSVLCAVAWDEATLVIARLSQGVGSAIASPTGLALVATTFPKGPARNAATAVFAAMTAIGSVMGLVVGGALTEVSWRWAFLVNVPIGLVMIYLARTALRETNKERMKLDATGAILATLACTAAVFAFSIGPEKGWMSGITIGSGLVALAAAVAFVIVERTAENPVVPFHLFRDRNRLVTFSAILLAGGVMFSLTVCIGLYVQDILGYSALRAGVGFIPFVIAMGIGLGVSSQLVSRFSPRVLTIGGGYLLFGAMLYGSFFMHRGVPYFPNLVMPIVVGGIGIGMAVVPLTLSAIAGVGFDQIGPVSAIALMLQSLGGPLVLAVIQAVITSRTLYLGGTTGPVKFMNDVQLAALDHAYTYGLLWVAGAAIIVDGMALFIGYTPQQVAHAQEVKEAIDAGEL |  | binds
4 | MtEfpA L195D mutant (natural protein) MTALNDTERAVRNWTAGRPHRPAPMRPPRSEETASERPSRYYPTWLPSRSFIAAVIAIGGMQLLATMDSTVAIVALPKIQNELSLSDAGRSWVITAYVLTFGGLMLLGGRLGDTIGRKRTFIVGVALFTISSVLCAVAWDEATLVIARLSQGVGSAIASPTGLALVATTFPKGPARNAATAVFAAMTAIGSVMGDVVGGALTEVSWRWAFLVNVPIGLVMIYLARTALRETNKERMKLDATGAILATLACTAAVFAFSIGPEKGWMSGITIGSGLVALAAAVAFVIVERTAENPVVPFHLFRDRNRLVTFSAILLAGGVMFSLTVCIGLYVQDILGYSALRAGVGFIPFVIAMGIGLGVSSQLVSRFSPRVLTIGGGYLLFGAMLYGSFFMHRGVPYFPNLVMPIVVGGIGIGMAVVPLTLSAIAGVGFDQIGPVSAIALMLQSLGGPLVLAVIQAVITSRTLYLGGTTGPVKFMNDVQLAALDHAYTYGLLWVAGAAIIVGGMALFIGYTPQQVAHAQEVKEAIDAGEL |  | binds
5 | MtEfpA T324D mutant (natural protein) MTALNDTERAVRNWTAGRPHRPAPMRPPRSEETASERPSRYYPTWLPSRSFIAAVIAIGGMQLLATMDSTVAIVALPKIQNELSLSDAGRSWVITAYVLTFGGLMLLGGRLGDTIGRKRTFIVGVALFTISSVLCAVAWDEATLVIARLSQGVGSAIASPTGLALVATTFPKGPARNAATAVFAAMTAIGSVMGLVVGGALTEVSWRWAFLVNVPIGLVMIYLARTALRETNKERMKLDATGAILATLACTAAVFAFSIGPEKGWMSGITIGSGLVALAAAVAFVIVERTAENPVVPFHLFRDRNRLVTFSAILLAGGVMFSLDVCIGLYVQDILGYSALRAGVGFIPFVIAMGIGLGVSSQLVSRFSPRVLTIGGGYLLFGAMLYGSFFMHRGVPYFPNLVMPIVVGGIGIGMAVVPLTLSAIAGVGFDQIGPVSAIALMLQSLGGPLVLAVIQAVITSRTLYLGGTTGPVKFMNDVQLAALDHAYTYGLLWVAGAAIIVGGMALFIGYTPQQVAHAQEVKEAIDAGEL |  | binds
